Assay results as given in patent publication US20220281986A1 (RESEARCH FOUNDATION FOR THE STATE UNIVERSITY OF NEW YORK, published 2022).

Molecular target: T1, peptide corresponding to the N-terminal domain of CXCR4 (biotinylated (position not given))
T1 construct: Synthetic peptide (ABclonal), biotinylated and captured on neutravidin-coated plates; also called CXCR4 N-terminal domain; NTD of CXCR4
T1 peptide: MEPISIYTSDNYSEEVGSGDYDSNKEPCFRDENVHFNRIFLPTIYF
Test: ELISA; serially diluted scFv on biotinylated CXCR4 N-terminal peptide captured on neutravidin
Protocol: The binding affinity of the anti-CXCR4 scFv was assessed with an ELISA. Purified anti-CXCR4 scFvs were serially diluted and added to a 96-well plate that was first coated with neutravidin and then coated with the biotinylated CXCR4 N-terminal peptide domain. Anti-FLAG-HRP conjugate (Sigma Aldrich) served as the primary antibody. 100 μL of Ultra-TMB substrate (Thermo Fisher Scientific) was added to quantify the amount of bound anti-CXCR4 scFv. The reaction was then quenched with 12.5 M H₂SO₄ aqueous solution. Readings were taken using a plate reader with the wavelength set to 450 nm.

Kd: 114 nM
B1: CXCR4-scFv (scFv)
scFv: QSVLTQPPSASGTPGQRVTISCSGSSSNIGSNYVYWYQQLPGTAPKLLIYRNNQRPSGVPDRFSGSKSGTSASLAISGLRSEDEGDYYCATWDDSLSGVVFGGGTKLTVLGEGKSSGSGSESKASQVTLKESGAEVKKPGASVKVSCKASGYTFTNFYIHWVRRAPGQGLEWMGIINPSDGRTTYAQKFQGRVTMTRDTSTSTLYMELTSLRSEDTAVYYCGRGGHYSNYFGQPSTWGQGTLVTVSVEASHHHHHH
modifications: labeled with DyLight 650 (NHS ester) in the cell binding and imaging assays; unlabeled in the ELISA
notes: also called scFv#c; anti-CXCR4 scFv
